Reference: patent US20240392023A1 (ABCLON, published 2024)
Values belong to the binder of their own block, whether it stands above or below them.

How the values were obtained:
[1] = molecular target: T1, CD30-His (Sino Biological, 10777-H08H) (UniProt P28908 19-379); assay: ELISA, scFv-Fc titrated on plate coated with 1 µg/mL CD30-His
T1 construct: Bought protein; also called CD30-His protein; CD30 protein; not shown: His tag
T1 sequence (looked up): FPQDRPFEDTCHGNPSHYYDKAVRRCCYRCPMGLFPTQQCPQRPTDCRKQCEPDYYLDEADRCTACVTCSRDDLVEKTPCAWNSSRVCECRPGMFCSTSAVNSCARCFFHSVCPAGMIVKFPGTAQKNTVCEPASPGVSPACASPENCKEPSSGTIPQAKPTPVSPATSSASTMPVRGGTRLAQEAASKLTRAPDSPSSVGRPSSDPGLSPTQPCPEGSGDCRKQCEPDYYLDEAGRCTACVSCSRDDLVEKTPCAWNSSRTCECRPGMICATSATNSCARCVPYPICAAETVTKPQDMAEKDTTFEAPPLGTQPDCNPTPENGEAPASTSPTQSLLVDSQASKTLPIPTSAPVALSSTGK
Method: For ELISA, the eleven purified anti-CD30 scFv-Fc forms and the positive control HRS scFV-Fc were 1/3 diluted for 10 points starting from 10 μg/mL in a plate coated with 1 μg/mL CD30-His protein. After treatment with a secondary antibody (anti-hIgG-Fc-HRP (Invitrogen, H10007)), a color was developed with TMB. OD₄₅₀ values were read using an ELISA reader, and EC₅₀ values were measured by means of Graph prism (FIG. 1, Table 3).

[2] = molecular target: T2, CD30 expressed on cells (CD30-293T, SUDHL1, HDLM-2) (UniProt P28908 19-595); assay: cell-based or functional assay
T2 sequence (looked up): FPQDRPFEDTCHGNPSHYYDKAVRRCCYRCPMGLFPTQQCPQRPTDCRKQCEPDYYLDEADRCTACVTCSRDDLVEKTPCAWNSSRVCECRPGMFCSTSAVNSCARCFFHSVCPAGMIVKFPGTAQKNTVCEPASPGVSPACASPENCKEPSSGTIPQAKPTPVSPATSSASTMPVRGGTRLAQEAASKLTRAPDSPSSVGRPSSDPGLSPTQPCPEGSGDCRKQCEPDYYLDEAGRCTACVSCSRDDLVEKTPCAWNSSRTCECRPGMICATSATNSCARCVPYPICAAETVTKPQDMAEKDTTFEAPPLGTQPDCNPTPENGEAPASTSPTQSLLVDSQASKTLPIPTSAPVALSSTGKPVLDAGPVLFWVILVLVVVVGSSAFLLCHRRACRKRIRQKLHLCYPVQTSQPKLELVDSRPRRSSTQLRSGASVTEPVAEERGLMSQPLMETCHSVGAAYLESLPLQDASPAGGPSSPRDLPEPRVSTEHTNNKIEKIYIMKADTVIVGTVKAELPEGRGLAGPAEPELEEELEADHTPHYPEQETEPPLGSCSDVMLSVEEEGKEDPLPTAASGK

[3] = molecular target: T2, CD30 expressed on cells (CD30-293T, …); assay: cell-based or functional assay; remark: listed apart in the source
[4] = molecular target: T2, CD30 expressed on cells (CD30-293T, …); assay: cell-based or functional assay; remark: listed apart in the source

B2: scFv CAR of anti CD30 antibody (T1-159), on CAR-T cells (other)
chain: EVQLLESGGGLVQPGGSLRLSCAASGFTFSSYGMSWVRQAPGKGLEWVSSIYYYSGGTYYADSVKGRFTISRDNSKNTLYLQMNSLRAEDTAVYYCARNDYRNNSDFDYWGQGTLVTVSSGGGGSGGGGSGGGGSQSVLTQPPSASGTPGQRVTISCSGSSSNIGSNYVYWYQQLPGTAPKLLIYRNNQRPSGVPDRFSGSKSGTSASLAISGLRSEDEADYYCAAYYPYYYVFGGGTKLTVLGGQAGQTTTPAPRPPTPAPTIASQPLSLRPEACRPAAGGAVHTRGLDFACDIYIWAPLAGTCGVLLLSLVITLYCKRGRKKLLYIFKQPFMRPVQTTQEEDGCSCRFPEEEEGGCELRVKFSRSADAPAYQQGQNQLYNELNLGRREEYDVLDKRRGRDPEMGGKPRRKNPQEGLYNELQKDKMAEAYSEIGMKGERRRGKGHDGLYQGLSTATKDTYDALHMQALPPR
- tumor death rate on HDLM-2 cells, ratio of CAR-T to the target 0.25 [2]: ≥ 50%
- Cytotoxicity (%) against CD30-expressing cell (SUDHL1), CAR-T/Target 0.11 [3]: 24%
- Cytotoxicity (%) against CD30-expressing cell (SUDHL1), CAR-T/Target 0.33 [3]: 58%
- Cytotoxicity (%) against CD30-expressing cell (SUDHL1), CAR-T/Target 1 [3]: 88%
- Cytotoxicity (%) against CD30-expressing cell (CD30-293T), CAR-T/Target 0.11 [4]: -4%
- Cytotoxicity (%) against CD30-expressing cell (CD30-293T), CAR-T/Target 0.33 [4]: 60%
- Cytotoxicity (%) against CD30-expressing cell (CD30-293T), CAR-T/Target 1 [4]: 72%

B4: T1-7 anti-CD30 scFv-Fc (Fc fusion)
scFv: EVQLLESGGGLVQPGGSLRLSCAASGFTFSGYGMSWVRQAPGKGLEWVSYISSGSYYTYYADSVKGRFTISRDNSKNTLYLQMNSLRAEDTAVYYCARYRGDNDYYGYFDYWGQGTLVTVSSGGGGSGGGGSGGGGSQSVLTQPPSASGTPGQRVTISCSCSSSNIGNNAVSWYQQLPGTAPKLLIYRNNQRPSGVPDRFSGSKSGTSASLAISGLRSEDEADYYCAADYGSDYVFGGGTKLTVLG
notes: scFv-Fc-conjugated form (Zb-Fc); also called Zb-Fc form; not shown: Fc of the scFv-Fc (Zb-Fc) form and any junction to it
- EC50 [1]: 0.048 µg/mL

B6: T1-8 anti-CD30 scFv-Fc (Fc fusion)
scFv: EVQLLESGGGLVQPGGSLRLSCAASGFTFSSYMSWVRQAPGKGLEWVSSIGSGYYSTYYADSVKGRFTISRDNSKNTLYLQMNSLRAEDTAVYYCARDYYGGFDYWGQGTLVTVSSGGGGSGGGGSGGGGSQSVLTQPPSASGTPGQRVTISCSGSSSNIGSNYVYWYQQLPGTAPKLLIYRNNQRPSGVPDRFSGSKSGTSASLAISGLRSEDEADYYCAAYDSYSYVFGGGTKLTVLG
notes: scFv-Fc-conjugated form (Zb-Fc); also called Zb-Fc form; not shown: Human Fc of the scFv-Fc (Zb-Fc) form and its junction to the scFv
- EC50 [1]: 0.051 µg/mL

B9: T2-2 anti-CD30 scFv-Fc (Fc fusion)
chain: EVQLLESGGGLVQPGGSLRLSCAASGFTFSSYHMSWVRQAPGKGLEWVSGIGYGHGGTYYADSVKGRFTISRDNSKNTLYLQMNSLRAEDTAVYYCARYDYDYSFDYWGQGTLVTVSSGGGGSGGGGSGGGGSQSVLTQPPSASGTPGQRVTISCSGSSSNIGSNYVYWYQQLPGTAPKLLIYRNNQRPSGVPDRFSGSKSGTSASLAISGLRSEDEADYYCAVSSPYSYVFGGGTKLTVLG
notes: scFv-Fc-conjugated form (Zb-Fc); also called Zb-Fc form; not shown: Fc of the scFv-Fc form (Zb-Fc)
- EC50 [1]: 0.038 µg/mL

B11: T1-36 anti-CD30 scFv-Fc (Fc fusion)
scFv: EVQLLESGGGLVQPGGSLRLSCAASGFTFSYYYMSWVRQAPGKGLEWVSYIGGGGSGTYYADSVKGRFTISRDNSKNTLYLQMNSLRAEDTAVYYCARGPYYGYFDYWGQGTLVTVSSGGGGSGGGGSGGGGSQSVLTQPPSASGTPGQRVTISCSGSSSNIGSNYVYWYQQLPGTAPKLLIYRNNQRPSGVPDRFSGSKSGTSASLAISGLRSEDEADYYCAAYPSYDSYVFGGGTKLTVLG
notes: scFv-Fc-conjugated form (Zb-Fc); also called Zb-Fc form; not shown: Fc of the scFv-Fc (Zb-Fc) form and its junction
- EC50 [1]: 0.021 µg/mL

B12: T1-117 anti-CD30 scFv-Fc (Fc fusion)
scFv: EVQLLESGGGLVQPGGSLRLSCAASGFTFSYYGMSWVRQAPGKGLEWVSYISGYSSYTYYADSVKGRFTISRDNSKNTLYLQMNSLRAEDTAVYYCARYNDSGSFDYWGQGTLVTVSSGGGGSGGGGSGGGGSQSVLTQPPSASGTPGQRVTISCSGSSSNIGSNYVYWYQQLPGTAPKLLIYRNNQRPSGVPDRFSGSKSGTSASLAISGLRSEDEADYYCAADAGNRYVFGGGTKLTVLG
notes: as for B11
- EC50 [1]: 0.157 µg/mL

B13: scFv CAR of anti CD30 antibody (T1-8), on CAR-T cells (other)
chain: EVQLLESGGGLVQPGGSLRLSCAASGFTFSSYMSWVRQAPGKGLEWVSSIGSGYYSTYYADSVKGRFTISRDNSKNTLYLQMNSLRAEDTAVYYCARDYYGGFDYWGQGTLVTVSSGGGGSGGGGSGGGGSQSVLTQPPSASGTPGQRVTISCSGSSSNIGSNYVYWYQQLPGTAPKLLIYRNNQRPSGVPDRFSGSKSGTSASLAISGLRSEDEADYYCAAYDSYSYVFGGGTKLTVLGGQAGQTTTPAPRPPTPAPTIASQPLSLRPEACRPAAGGAVHTRGLDFACDIYIWAPLAGTCGVLLLSLVITLYCKRGRKKLLYIFKQPFMRPVQTTQEEDGCSCRFPEEEEGGCELRVKFSRSADAPAYQQGQNQLYNELNLGRREEYDVLDKRRGRDPEMGGKPRRKNPQEGLYNELQKDKMAEAYSEIGMKGERRRGKGHDGLYQGLSTATKDTYDALHMQALPPR
- Cytotoxicity (%) against CD30-expressing cell (SUDHL1), CAR-T/Target 0.11 [3]: 43%
- Cytotoxicity (%) against CD30-expressing cell (SUDHL1), CAR-T/Target 0.33 [3]: 60%
- Cytotoxicity (%) against CD30-expressing cell (SUDHL1), CAR-T/Target 1 [3]: 78%
- Cytotoxicity (%) against CD30-expressing cell (CD30-293T), CAR-T/Target 0.11 [4]: -8%
- Cytotoxicity (%) against CD30-expressing cell (CD30-293T), CAR-T/Target 0.33 [4]: 0%
- Cytotoxicity (%) against CD30-expressing cell (CD30-293T), CAR-T/Target 1 [4]: 35%

Other lines, results leading:

- EC50 [1]: 0.26 µg/mL
B1: T1-159 anti-CD30 scFv-Fc (Fc fusion)
scFv: EVQLLESGGGLVQPGGSLRLSCAASGFTFSSYGMSWVRQAPGKGLEWVSSIYYYSGGTYYADSVKGRFTISRDNSKNTLYLQMNSLRAEDTAVYYCARNDYRNNSDFDYWGQGTLVTVSSGGGGSGGGGSGGGGSQSVLTQPPSASGTPGQRVTISCSGSSSNIGSNYVYWYQQLPGTAPKLLIYRNNQRPSGVPDRFSGSKSGTSASLAISGLRSEDEADYYCAAYYPYYYVFGGGTKLTVLG
notes: as for B4

- EC50 [1]: 0.06 µg/mL
B3: T1-2 anti-CD30 scFv-Fc (Fc fusion)
scFv: EVQLLESGGGLVQPGGSLRLSCAASGFTFSGYGMSWVRQAPGKGLEWVSYISGYSYYTYYADSVKGRFTFSRDNSKNTLYLQMNSLRAEDTAVYYCARYDGNGFDYWGQGTLVTVSSGGGGSGGGGSGGGGSQSVLTQPPSASGTPGQRVTISCSGSSSNIGSNYVYWYQQLPGTAPKLLIYRNNQRPSGVPDRFSGSKSGTSASLAISGLRSEDEADYYCAADSSDDSYVFGGGTKLTVLG
notes: Cloned in an scFv-Fc-conjugated form (Zb-Fc); detected with anti-human IgG Fc; also called Zb-Fc form; not shown: Fc of the scFv-Fc (Zb-Fc) form and any junction to it

- EC50 [1]: 0.031 µg/mL
B5: T1-10 anti-CD30 scFv-Fc (Fc fusion)
scFv: EVQLLESGGGLVQPGGSLRLSCAASGFTFSSYGMSWVRQAPGKGLEWVSYISGGSYYTYYADSVKGRFTISRDNSKNTLYLQMNSLRAEDTAVYYCARYGYGYYDGSFDYWGQGTLVTVSSGGGGSGGGGSGGGGSQSVLTQPPSASGTPGQRVTISCSGSSSNIGSNYVYWYQQLPGTAPKLLIYRNNQRPSGVPDRFSGSKSGTSASLAISGLRSEDEADYYCAADGPYNYVFGGGTKLTVLG
notes: as for B11

- EC50 [1]: 0.026 µg/mL
B7: T1-9 anti-CD30 scFv-Fc (Fc fusion)
scFv: EVQLLESGGGLVQPGGSLRLSCAASGFTFSYYGMSWVRQAPGKGLEWVSGIGSYSSYTYYADSVKGRFTISRDNSKNTLYLQMNSLRAEDTAVYYCARYASSPDAYFDYWGQGTLVTVSSGGGGSGGGGSGGGGSQSVLTQPPSASGTPGQRVTISCSGSSSNIGSNYVYWYQQLPGTAPKLLIYRNNQRPSGVPGRFSGSKSGTSASLAISGLRSEDEADYYCAAYYNYNYVFGGGTKLTVLG
notes: as for B11

- EC50 [1]: 0.026 µg/mL
B8: T1-141 anti-CD30 scFv-Fc (Fc fusion)
scFv: EVQLLESGGGLVQPGGSLRLSCAASGFTFSYYDMSWVRQAPGKGLEWVSGIYGSGSTYYADSVKGRFTISRDNSKNTLYLQMNSLRAEDTAVYYCARYSYYDSYSDYFDYWGQGTLVTVSSGGGGSGGGGSGGGGSQSVLTQPPSASGTPGQRVTISCSGSSSNIGSNYVYWYQQLPGTAPKLLIYRNNQRPSGVPDRFSGSKSGTSASLAISGLRSEDEADYYCAAYSYGYYVFGGGTKLTVLG
notes: as for B11

- EC50 [1]: 0.023 µg/mL
B10: T1-23 anti-CD30 scFv-Fc (Fc fusion)
scFv: EVQLLESGGGLVQPGGSLRLSCAASGFTFSSYSMSWVRQAPGKGLEWVSGIGYPYYTYYADSVKGRFTISRDNSKNTLYLQMNSLRAEDTAVYYCARYYYDYGFDYWGQGTLVTVSSGGGGSGGGGSGGGGSQSVLTQPPSASGTPGQRVTISCSGSSSNIGSNYVYWYQQLPGTAPKLLIYRNNQRPSGVPDRFSGSKSGTSASLAISGLRSEDEADYYCAAYRSYDYVFGGGTKLTVLG
notes: as for B11
